Laboratory results: patent publication US20250333496A1 (Novo Nordisk, published 2025)
Where two headings read alike, the source gives them in different places.

T1: IL-6R on HEK293-STAT3-Luc reporter cells (UniProt P08887 20-468, limits assumed)
T1 sequence (looked up): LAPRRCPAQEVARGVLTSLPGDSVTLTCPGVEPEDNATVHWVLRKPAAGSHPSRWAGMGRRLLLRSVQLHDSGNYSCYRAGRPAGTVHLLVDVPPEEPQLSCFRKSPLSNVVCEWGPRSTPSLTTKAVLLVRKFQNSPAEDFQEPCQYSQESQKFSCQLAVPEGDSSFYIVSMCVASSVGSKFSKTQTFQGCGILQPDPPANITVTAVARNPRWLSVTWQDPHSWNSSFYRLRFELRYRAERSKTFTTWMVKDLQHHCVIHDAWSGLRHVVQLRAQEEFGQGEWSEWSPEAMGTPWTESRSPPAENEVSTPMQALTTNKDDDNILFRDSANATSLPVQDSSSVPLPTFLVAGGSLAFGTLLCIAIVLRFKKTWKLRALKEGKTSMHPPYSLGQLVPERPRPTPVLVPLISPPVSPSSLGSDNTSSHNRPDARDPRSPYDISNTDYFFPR


Key:
[1] = target: T2, human IL-6 (mature hIL-6) (human, UniProt P05231 30-212); assay: cell-based or functional assay
T2 sequence (P05231 30-212): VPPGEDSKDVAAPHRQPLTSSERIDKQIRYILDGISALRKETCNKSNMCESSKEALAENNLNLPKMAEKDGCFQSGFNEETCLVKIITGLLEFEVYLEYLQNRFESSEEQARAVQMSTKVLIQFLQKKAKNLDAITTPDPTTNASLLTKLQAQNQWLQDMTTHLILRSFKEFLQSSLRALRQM

[2] = target: T2, human IL-6 (mature hIL-6); assay: cell-based or functional assay; remark: listed apart in the source
[3] = target: T3, recombinant human HPC4-tagged IL-6 (human, UniProt P05231 30-212); assay: SPR, HPC4-IL-6 captured on anti-HPC4 antibody, VHH injected, 25 C, 1:1 model
T3 construct: captured on an anti-HPC4 antibody in SPR; also called HPC4-human IL6
T3 sequence (P05231 other isoform, or with tags, fused parts or gaps limits assumed): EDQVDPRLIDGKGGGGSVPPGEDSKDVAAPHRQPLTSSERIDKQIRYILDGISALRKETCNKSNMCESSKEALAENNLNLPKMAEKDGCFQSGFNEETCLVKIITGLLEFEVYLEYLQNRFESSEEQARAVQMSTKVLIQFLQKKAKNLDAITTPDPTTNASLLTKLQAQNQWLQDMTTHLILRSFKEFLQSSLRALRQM
Method: Binding of purified anti-IL-6 VHHs to recombinant human HPC4-tagged IL-6 (SEQ ID NO: 98) was probed by Surface Plasmon Resonance (SPR).
IL-6 was captured at a flow rate of 10 μL/min for 30 seconds.
Subsequently, concentration series of VHH polypeptides according to Table 33 were injected at a flow rate of 50 μL/min for 200 seconds to allow for binding to […] followed by 600 seconds running buffer (10 mM HEPES, 150 mM NaCl, 5 mM CaCl₂, 0.05% (v/v) Surfactant P20, 1 mg/mL bovine serum albumin, pH 7.4) injection allowing dissociation from IL-6. The running buffer was also used for dilution of anti-IL-6 VHHs and IL-6. Regeneration of the chip was achieved using a regeneration buffer consisting of 50 mM EDTA in running buffer without CaCl₂, 30 seconds contact time, and a 30 μL/min flow rate applied twice to the surface. The binding data were collected at 25° C. at either a Biacore instrument (Cytiva AB, Uppsala) or a Bruker SPR32 (Bruker Daltonics). Data were analysed according to a 1:1 model using either BiaEvaluation or Biacore Insight Evaluation (Cytiva AB, Uppsala) or Bruker Analyser (Bruker Daltonics).

[4] = target: T2, human IL-6 (mature hIL-6); assay: cell-based or functional assay; remark: listed apart in the source
[5] = target: T2, human IL-6 (mature hIL-6); assay: cell-based or functional assay; remark: listed apart in the source
[6] = target: T1, IL-6R on HEK293-STAT3-Luc reporter cells; assay: cell-based or functional assay
[7] = target: T1, IL-6R on HEK293-STAT3-Luc reporter cells; assay: cell-based or functional assay; remark: listed apart in the source

IC50 (nM), STAT3-luc reporter gene assay [1] [nM] | Relative IC50 to Polypeptide_29 [1] [fold] | Relative IC50 to Reference Anti-IL6 Fab [1] [fold] | IC 50 (nM), reporter gene assay, 0% HSA [2] [nM] | IC50 (nM) mean, STAT3-luc reporter gene assay [4] [nM] | Relative IC50 to Polypeptide_29 [4] [fold] | Binder | also measured
0.039 | 0.9 | 1 | 0.026 | – | – | Reference Anti-IL6 Fab (Fab, V domains shown) VH: EVQLVESGGGLVQPGGSLRLSCAASGFTISSNYMIWVRQAPGKGLEWVSDLYYYAGDTYYADSVKGRFTMSRDISKNTVYLQMNSLRAEDTAVYYCARWADDHPPWIDLWGRGTLVTVSS VL: DIQMTQSPSTLSASVGDRVTITCRASQGISSWLAWYQQKPGKAPKVLIYKASTLESGVPSRFSGSGSGTEFTLTISSLQPDDFATYYCQQSWLGGSFGQGTKLEIKR | IC 50 (nM), reporter gene assay, 1% HSA [2]: 0.017 nM
0.044 | 1 | 1.1 | 0.035 | 0.039 | 1 | Polypeptide_29 (VHH, VHH_1.6 with C-terminal His tag extension E1; also called [VHH_1.6]-E1) VHH: EVQLVESGGGLVQPGGSLKLSCTTSGRRFSEYAVGWFRQAPGKEREFVADIGEQAENTWYAESVLGRFTISRDDAKNTVYLEMDGLKPEDTAVYYCAADKYGVGGNAQGYYDSWGQGTQVTVSS | Kd [3]: 3.9 pM; koff [3]: 8.69e-05 s⁻¹; kon [3]: 2.23e+07 M⁻¹ s⁻¹; IC50 (nM), STAT3-luc reporter gene assay [5]: 0.034 nM; Relative IC50 to Reference Polypeptide_29 [5]: 1 fold
– | – | – | – | 0.042 | 1.1 | Compound 19 (VHH, Chem. 27 (C20 fatty acid substituent) on Cys in position 4 and on Cys in position 6 of the extension (SEQ ID NO: 162)) VHH: EVQLVESGGGLVQPGGSLKLSCTTSGRRFSEYAVGWFRQAPGKEREFVADIGEQAENTWYAESVLGRFTISRDDAKNTVYLEMDGLKPEDTAVYYCAADKYGVGGNAQGYYDSWGQGTQVTVSS | –
– | – | – | – | 0.043 | 1.2 | Compound 18 (VHH, Chem. 26 (C18 fatty acid substituent) on Cys in position 4 and on Cys in position 6 of the extension (SEQ ID NO: 162)) VHH: EVQLVESGGGLVQPGGSLKLSCTTSGRRFSEYAVGWFRQAPGKEREFVADIGEQAENTWYAESVLGRFTISRDDAKNTVYLEMDGLKPEDTAVYYCAADKYGVGGNAQGYYDSWGQGTQVTVSS | –
– | – | – | – | – | – | Vobarilizumab anti-IL-6R domain SIA comparator (VHH) VHH: EVQLVESGGGLVQPGGSLRLSCAASGSVFKINVMAWYRQAPGKGRELVAGIISGGSTSYADSVKGRFTISRDNAKNTLYLQMNSLRPEDTAVYYCAFITTESDYDLGRRYWGQGTLVTVSS | IC50 (nM), STAT3-luc reporter gene assay [6]: 0.114 nM; Relative IC50 to Polypeptide_29 [6]: 2.6 fold; Relative IC50 to Reference Anti-IL6 Fab [6]: 2.9 fold; IC 50 (nM), reporter gene assay, 0% HSA [7]: 0.114 nM
0.115 | 2.6 | 2.9 | – | – | – | anti-IL-6 VHH building block 7G05 SIA comparator (VHH) VHH: QVKLEESGGGLVQPGGSLRLSCAASGSISRFNIMGWYRQAPGKQRELVADITNGGTTMYADSVKGRFTISRDNTKNTVYLQMNSLKPEDTAVYYCHTYYPTTGFDDWGQGAQVTVSS | –
